Measured values as given in PMC11472164.

How the values were obtained:
Experiment in all cases: EMSA
FANCMc-deltaHel2i = FANCMc-deltaHel2i (UniProt Q8IYD8;Q8N2Z9;A8MT69;Q9BTP7 1-297+444-2048;1-138;1-81;1-215, internal_change)
[1] = molecular target: T1, trFANCM (translocase domain) (UniProt Q8IYD8 82-647)
T1 sequence: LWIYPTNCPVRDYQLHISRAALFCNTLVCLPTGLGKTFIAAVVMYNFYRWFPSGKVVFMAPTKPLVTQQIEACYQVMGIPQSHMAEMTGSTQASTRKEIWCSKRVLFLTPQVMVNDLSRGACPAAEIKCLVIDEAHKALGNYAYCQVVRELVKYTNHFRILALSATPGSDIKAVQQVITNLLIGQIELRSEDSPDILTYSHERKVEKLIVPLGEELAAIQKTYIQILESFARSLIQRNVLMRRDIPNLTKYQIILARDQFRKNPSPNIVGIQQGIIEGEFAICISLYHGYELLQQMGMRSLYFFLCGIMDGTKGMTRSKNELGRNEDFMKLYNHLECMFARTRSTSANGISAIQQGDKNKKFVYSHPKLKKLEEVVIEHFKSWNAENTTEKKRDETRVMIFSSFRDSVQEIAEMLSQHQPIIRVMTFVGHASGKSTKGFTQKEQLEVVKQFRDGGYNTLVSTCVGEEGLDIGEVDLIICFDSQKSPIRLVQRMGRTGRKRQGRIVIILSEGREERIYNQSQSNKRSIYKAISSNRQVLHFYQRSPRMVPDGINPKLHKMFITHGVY

trFANCM-deltaHel2i = molecular target: T2, trFANCM-deltaHel2i (UniProt Q8IYD8 82-647, del298-443)
T2 sequence: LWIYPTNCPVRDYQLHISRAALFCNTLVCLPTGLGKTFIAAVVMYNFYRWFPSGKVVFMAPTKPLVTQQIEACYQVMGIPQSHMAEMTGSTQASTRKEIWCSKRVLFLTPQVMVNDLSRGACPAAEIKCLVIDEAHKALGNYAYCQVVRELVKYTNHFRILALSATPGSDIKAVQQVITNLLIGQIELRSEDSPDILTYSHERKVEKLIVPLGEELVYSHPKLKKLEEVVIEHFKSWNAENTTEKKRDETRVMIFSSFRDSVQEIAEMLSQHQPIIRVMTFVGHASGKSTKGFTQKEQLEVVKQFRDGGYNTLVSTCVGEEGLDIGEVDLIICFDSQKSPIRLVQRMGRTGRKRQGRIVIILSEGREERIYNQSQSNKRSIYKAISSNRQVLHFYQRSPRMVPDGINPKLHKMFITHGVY

[2] = molecular target: FANCMc (full-length FANCM complex) (UniProt Q8IYD8;Q8N2Z9;A8MT69;Q9BTP7 1-2048;1-138;1-81;1-215)

B1: 30 bp static (non-migratable) Holliday junction, X0s1-4, IRDye700 (structured_DNA)
DNA 1: TACCAGTGCCTTGCTAGGACATCTTTGCCCAC
DNA 2: GTGGGCAAAGATGTCCATCTGTTGTAATCGTC
DNA 3: GACGATTACAACAGATCATGGAGCTGTCTAGA
DNA 4: TCTAGACAGCTCCATGTAGCAAGGCACTGGTA
binding result (FANCMc-deltaHel2i): binds | binding result [1]: binds | binding signal (trFANCM-deltaHel2i): > 60 fold reduction vs trFANCM | binding result [2]: binds
